Laboratory results published in patent publication US20220098269A1 (IMMATICS BIOTECHNOLOGIES, published 2022).

B1: VTQDDTGFY (peptide)
peptide: VTQDDTGFY
B2: ITDDTVQTY (peptide)
peptide: ITDDTVQTY
B3: TFVDASRTLY (peptide)
peptide: TFVDASRTLY
B4: RSLDCTVKTY (peptide)
peptide: RSLDCTVKTY
B5: RSIDVTGQGF (peptide)
peptide: RSIDVTGQGF
B6: HVKDATMGY (peptide)
peptide: HVKDATMGY
B7: VTDVTEEHY (peptide)
peptide: VTDVTEEHY
B8: FTDTSSYEY (peptide)
peptide: FTDTSSYEY
B9: YSIDVTNVM (peptide)
peptide: YSIDVTNVM
B10: EVQDHSTSSY (peptide)
peptide: EVQDHSTSSY
B11: NHITDTSLNLF (peptide)
peptide: NHITDTSLNLF
B12: LSDLTCNNY (peptide)
peptide: LSDLTCNNY
B13: ILFSDSTRLSF (peptide)
peptide: ILFSDSTRLSF
B14: HVDNSNLNY (peptide)
peptide: HVDNSNLNY
B15: QVDGSLLVI (peptide)
peptide: QVDGSLLVI
B16: HADLTTLTF (peptide)
peptide: HADLTTLTF
B17: PSDGSMHNY (peptide)
peptide: PSDGSMHNY
B18: GTDQTGKGLEY (peptide)
peptide: GTDQTGKGLEY
B19: WLDRSTILY (peptide)
peptide: WLDRSTILY
B20: LSDLSLADI (peptide)
peptide: LSDLSLADI
B21: GTDKQDSTLRY (peptide)
peptide: GTDKQDSTLRY
B22: MTDVDRDGTTAY (peptide)
peptide: MTDVDRDGTTAY
B23: TANYDTSHY (peptide)
peptide: TANYDTSHY
B24: LTNDQTLRL (peptide)
peptide: LTNDQTLRL
B25: YIDDVTLI (peptide)
peptide: YIDDVTLI
B26: FTDLITDESINY (peptide)
peptide: FTDLITDESINY
B27: ISDGMDSSAHY (peptide)
peptide: ISDGMDSSAHY
B28: RVDDITDQF (peptide)
peptide: RVDDITDQF
B29: VTETMGIDGSAY (peptide)
peptide: VTETMGIDGSAY
B30: WSDWSNPAY (peptide)
peptide: WSDWSNPAY
B31: TSDTSQYDTY (peptide)
peptide: TSDTSQYDTY
B32: EVEGVIDGTYDY (peptide)
peptide: EVEGVIDGTYDY
B33: PSDLSVFTSY (peptide)
peptide: PSDLSVFTSY
B34: GQYDDSLQAY (peptide)
peptide: GQYDDSLQAY
B35: GVDDTSLLY (peptide)
peptide: GVDDTSLLY
B36: ITDTSLNLF (peptide)
peptide: ITDTSLNLF
B37: ILPDITTTY (peptide)
peptide: ILPDITTTY
B38: HVSDVTVNY (peptide)
peptide: HVSDVTVNY
B39: LTEVEKDATALY (peptide)
peptide: LTEVEKDATALY
B40: ISDITEKNSGLY (peptide)
peptide: ISDITEKNSGLY
B41: VTRDDTASY (peptide)
peptide: VTRDDTASY
B42: IYNFRLWDF (peptide)
peptide: IYNFRLWDF
B43: YWDETLKEF (peptide)
peptide: YWDETLKEF
B44: FFQDSTFSF (peptide)
peptide: FFQDSTFSF
B45: VFHDHTYHL (peptide)
peptide: VFHDHTYHL
B46: IYPDASLLIQNI (peptide)
peptide: IYPDASLLIQNI
B47: SYDETKIKF (peptide)
peptide: SYDETKIKF
B48: KLTDNSNQF (peptide)
peptide: KLTDNSNQF
B49: VHDFTLPSW (peptide)
peptide: VHDFTLPSW
B50: FYDNSVIIF (peptide)
peptide: FYDNSVIIF
B51: FFTDKTLSF (peptide)
peptide: FFTDKTLSF
B52: GYIDDVTLI (peptide)
peptide: GYIDDVTLI
B53: NYLLYVSDF (peptide)
peptide: NYLLYVSDF
B54: IFDETGRF (peptide)
peptide: IFDETGRF

The binders below were run against T1, HLA-A*01:01 (human) (assay: UV-ligand exchange, anti-b2m ELISA; peptide exchange yield grade).
T1 construct: Peptide-receptive MHC class I monomer after UV cleavage of a UV-sensitive ligand; captured on streptavidin plates, detected with anti-b2m
Description: (§1) Candidate peptides for T cell based therapies according to the present invention were further tested for their MHC binding capacity (affinity). The individual peptide-MHC complexes were produced by UV-ligand exchange, where a UV-sensitive peptide is cleaved upon UV-irradiation and exchanged with the peptide of interest as analyzed. Only peptide candidates that can effectively bind and stabilize the peptide-receptive MHC molecules prevent dissociation of the MHC complexes. To determine the yield of the exchange reaction, an ELISA was performed based on the detection of the light chain (β2m) of stabilized MHC complexes. The assay was performed as generally described in Rodenko et al. (Rodenko et al., 2006).
(§2) 96 well MAXISorp plates (NUNC) were coated over night with 2 μg/ml streptavidin in PBS at room temperature, washed 4× and blocked for 1h at 37° C. in 2% BSA containing blocking buffer. Refolded HLA-A*02:01/MLA-001 monomers served as standards, covering the range of 15-500 ng/ml. Peptide-MHC monomers of the UV-exchange reaction were diluted 100-fold in blocking buffer. Samples were incubated for 1 h at 37° C., washed four times, incubated with 2 μg/ml HRP conjugated anti-β2m for 1h at 37° C., washed again and detected with TMB solution that is stopped with […]. Absorption was measured at 450 nm. Candidate peptides that show a high exchange yield (preferably higher than 50%, most preferred higher than 75%) are generally preferred for a generation and production of antibodies or fragments thereof, and/or T cell receptors or fragments thereof, as they show sufficient avidity to the MHC molecules and prevent dissociation of the MHC complexes.

Binder | peptide exchange yield [%]
B1 | ≥ 75
B2 | ≥ 75
B3 | ≥ 75
B4 | 50 to 75
B5 | 20 to 50
B6 | 50 to 75
B7 | ≥ 75
B8 | ≥ 75
B9 | 50 to 75
B10 | 20 to 50
B11 | 20 to 50
B12 | ≥ 75
B13 | 50 to 75
B14 | ≥ 75
B15 | 20 to 50
B16 | 20 to 50
B17 | ≥ 75
B18 | 50 to 75
B19 | ≥ 75
B20 | 20 to 50
B21 | ≥ 75

Binder | peptide exchange yield [%]
B22 | ≥ 75
B23 | 20 to 50
B24 | 50 to 75
B25 | 20 to 50
B26 | ≥ 75
B27 | ≥ 75
B28 | 20 to 50
B29 | ≥ 75
B30 | ≥ 75
B31 | 50 to 75
B32 | ≥ 75
B33 | ≥ 75
B34 | 20 to 50
B35 | ≥ 75
B36 | ≥ 75
B37 | 20 to 50
B38 | 20 to 50
B39 | ≥ 75
B40 | ≥ 75
B41 | 20 to 50

These binders were tested against T2, HLA-A*24:02 (human) in the same assay as above.
T2 construct: Peptide-receptive MHC class I monomer after UV cleavage of a UV-sensitive ligand
Description: as §1, §2

Binder | peptide exchange yield [%]
B42 | ≥ 75
B43 | 50 to 75
B44 | ≥ 75
B45 | ≥ 75
B46 | ≥ 75
B47 | 10 to 20
B48 | 20 to 50
B49 | 20 to 50
B50 | 20 to 50
B51 | ≥ 75
B52 | 50 to 75
B53 | ≥ 75
B54 | 20 to 50
